Experimental data taken from US20240376163.

Test system: T1, biotin-p-CABIN1-L-1 (phosphorylated CABIN1-L-1)
T1 sequence: AAAMAGFPPEITVTPPTP
Experiment: SPR (Biacore T200), biotin-labeled peptide captured on SA chip, His-tagged CNA at 1.25, 2.5, 5 and 10 nM, 25° C.

Substance: His-tagged CNA (purified; isoform not stated)
- fold increase of binding affinity (phosphorylated vs unphosphorylated CABIN1 peptide): 3 fold
